Target: His221 (UniProt position 221, RKPFYHAFSFM)
Test: electrophysiology
Conditions: Symmetrical high K+. Bath: standard solution with Na+ replaced equimolarly by K+ (140 mM extracellular K+). Pipette: 140 mM KCl.; 10 mM Hepes/Tris; MES for pH 5.0-6.5, AMPSO for pH 8.5-9.0, CAPS for pH 9.5-11.0; pHo gating in high symmetrical K+ (needed to restore currents of the double mutant)

## TASK-3 (K2P9.1, KCNK9) H98N/V221H double mutant (Cavia porcellus; H98N;V221H)
  pKa: 6.86±0.11

Source: article PMC3026807
